B1: Catenin alpha-3 (Homo sapiens), Q9UI47-2 (parent)
chain: MSAETPITLNIDPQDLQVQTFTVEKLLEPLIIQVTTLVNCPQNPSSRKKGRSKRASVLLASVEEATWNLLDKGEKIAQEATVLKDELTASLEEVRKESEALKVSAERFTDDPCFLPKREAVVQAARALLAAVTRLLILADMIDVMCLLQHVSAFQRTFESLKNVANKSDLQKTYQKLGKELENLDYLAFKRQQDLKSPNQRDEIAGARASLKENSPLLHSICSACLEHSDVASLKASKDTVCEEIQNALNVISNASQGIQNMTTPPEPQAATLGSALDELENLIVLNPLTVTEEEIRPSLEKRLEAIISGAALLADSSCTRDLHRERIIAECNAIRQALQDLLSEYMNNAGKKERSNTLNIALDNMCKKTRDLRRQLRKAIIDHVSDSFLDTTVPLLVLIEAAKNGREKEIKEYAAIFHEHTSRLVEVANLACSMSTNEDGIKIVKIAANHLETLCPQIINAALALAARPKSQAVKNTMEMYKRTWENHIHVLTEAVDDITSIDDFLAVSGMFLFF
partner: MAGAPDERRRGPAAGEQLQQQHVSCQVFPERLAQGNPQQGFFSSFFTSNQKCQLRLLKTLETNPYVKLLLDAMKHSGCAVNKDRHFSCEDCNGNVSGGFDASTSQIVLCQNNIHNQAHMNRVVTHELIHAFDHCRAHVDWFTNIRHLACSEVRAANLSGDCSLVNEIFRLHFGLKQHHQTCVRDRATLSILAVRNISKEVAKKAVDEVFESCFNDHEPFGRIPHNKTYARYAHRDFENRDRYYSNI
B2: Ceroid-lipofuscinosis neuronal protein 6 (Homo sapiens), Q9NWW5 (parent)
chain: MEATRRRQHLGATGGPGAQLGASFLQARHGSVSADEAARTAPFHLDLWFYFTLQNWVLDFGRPIAMLVFPLEWFPLNKPSVGDYFHMAYNVITPFLLLKLIERSPRTLPRSITYVSIIIFIMGASIHLVGDSVNHRLLFSGYQHHLSVRENPIIKNLKPETLIDSFELLYYYDEYLGHCMWYIPFFLILFMYFSGCFTASKAESLIPGPALLLVAPSGLYYWYLVTEGQIFILFIFTFFAMLALVLHQKRKRLFLDSNGLFLFSSFALTLLLVALWVAWLWNDPVLRKKYPGVIYVPEPWAFYTLHVSSRH
partner: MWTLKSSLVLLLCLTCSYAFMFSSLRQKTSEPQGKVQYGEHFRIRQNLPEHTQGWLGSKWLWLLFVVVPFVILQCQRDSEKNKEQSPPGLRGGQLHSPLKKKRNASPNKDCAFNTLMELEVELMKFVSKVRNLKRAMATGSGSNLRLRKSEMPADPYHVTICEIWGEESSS
B3: Golgi SNAP receptor complex member 2 (Homo sapiens), O14653 (parent)
chain: MDPLFQQTHKQVHEIQSCMGRLETADKQSVHIVENEIQASIDQIFSRLERLEILSSKEPPNKRQNARLRVDQLKYDVQHLQTALRNFQHRRHAREQQERQREELLSRTFTTNDSDTTIPMDESLQFNSSLQKVHNGMDDLILDGHNILDGLRTQRLTLKGTQKKILDIANMLGLSNTVMRLIEKRAFQDKYFMIGGMLLTCVVMFLVVQYLT
partner: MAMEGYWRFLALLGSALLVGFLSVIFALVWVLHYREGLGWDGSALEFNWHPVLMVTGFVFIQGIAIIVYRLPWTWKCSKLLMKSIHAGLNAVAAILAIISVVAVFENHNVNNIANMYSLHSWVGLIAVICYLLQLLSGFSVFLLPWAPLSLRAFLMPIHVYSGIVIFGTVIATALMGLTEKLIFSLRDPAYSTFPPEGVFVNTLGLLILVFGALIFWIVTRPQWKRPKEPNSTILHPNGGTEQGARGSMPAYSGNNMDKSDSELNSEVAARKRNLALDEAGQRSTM
B4: Golgi SNAP receptor complex member 2 (Homo sapiens), O14653 (parent)
chain: B3 chain
partner: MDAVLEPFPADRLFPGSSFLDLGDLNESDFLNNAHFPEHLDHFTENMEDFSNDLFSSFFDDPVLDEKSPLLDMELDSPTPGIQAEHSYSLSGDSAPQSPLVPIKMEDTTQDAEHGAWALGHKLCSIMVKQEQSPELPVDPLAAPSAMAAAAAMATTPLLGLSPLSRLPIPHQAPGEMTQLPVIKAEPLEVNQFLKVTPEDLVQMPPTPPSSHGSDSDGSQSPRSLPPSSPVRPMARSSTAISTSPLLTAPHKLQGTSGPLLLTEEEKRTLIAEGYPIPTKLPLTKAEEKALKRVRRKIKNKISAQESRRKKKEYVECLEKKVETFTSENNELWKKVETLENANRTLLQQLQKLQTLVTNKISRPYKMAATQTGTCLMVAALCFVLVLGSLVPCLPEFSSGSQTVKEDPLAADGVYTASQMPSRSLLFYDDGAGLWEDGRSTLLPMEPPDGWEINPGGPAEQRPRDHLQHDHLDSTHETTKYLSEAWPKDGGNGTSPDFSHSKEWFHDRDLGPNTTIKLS
B5: Succinate--CoA ligase [ADP-forming] subunit beta, mitochondrial (Homo sapiens), Q9P2R7 (parent)
chain: MAASMFYGRLVAVATLRNHRPRTAQRAAAQVLGSSGLFNNHGLQVQQQQQRNLSLHEYMSMELLQEAGVSVPKGYVAKSPDEAYAIAKKLGSKDVVIKAQVLAGGRGKGTFESGLKGGVKIVFSPEEAKAVSSQMIGKKLFTKQTGEKGRICNQVLVCERKYPRREYYFAITMERSFQGPVLIGSSHGGVNIEDVAAESPEAIIKEPIDIEEGIKKEQALQLAQKMGFPPNIVESAAENMVKLYSLFLKYDATMIEINPMVEDSDGAVLCMDAKINFDSNSAYRQKKIFDLQDWTQEDERDKDAAKANLNYIGLDGNIGCLVNGAGLAMATMDIIKLHGGTPANFLDVGGGATVHQVTEAFKLITSDKKVLAILVNIFGGIMRCDVIAQGIVMAVKDLEIKIPVVVRLQGTRVDDAKALIADSGLKILACDDLDEAARMVVKLSEIVTLAKQAHVDVKFQLPI
partner: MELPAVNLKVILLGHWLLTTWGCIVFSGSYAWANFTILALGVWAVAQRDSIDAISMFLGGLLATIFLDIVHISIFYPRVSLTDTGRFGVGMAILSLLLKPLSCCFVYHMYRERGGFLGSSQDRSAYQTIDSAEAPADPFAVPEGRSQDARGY
B6: Golgi SNAP receptor complex member 2 (Homo sapiens), O14653 (parent)
chain: B3 chain
partner: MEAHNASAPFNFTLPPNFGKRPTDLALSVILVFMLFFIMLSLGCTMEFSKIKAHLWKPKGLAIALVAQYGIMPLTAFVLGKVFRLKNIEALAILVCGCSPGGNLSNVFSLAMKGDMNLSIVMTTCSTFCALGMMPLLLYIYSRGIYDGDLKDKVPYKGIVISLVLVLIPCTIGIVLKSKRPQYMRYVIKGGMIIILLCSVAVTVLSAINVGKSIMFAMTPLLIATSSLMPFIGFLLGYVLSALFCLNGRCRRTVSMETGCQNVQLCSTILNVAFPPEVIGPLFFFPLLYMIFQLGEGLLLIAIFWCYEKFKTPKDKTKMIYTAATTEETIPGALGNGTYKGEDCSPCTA
B7: Ceroid-lipofuscinosis neuronal protein 6 (Homo sapiens), Q9NWW5 (parent)
chain: B2 chain
partner: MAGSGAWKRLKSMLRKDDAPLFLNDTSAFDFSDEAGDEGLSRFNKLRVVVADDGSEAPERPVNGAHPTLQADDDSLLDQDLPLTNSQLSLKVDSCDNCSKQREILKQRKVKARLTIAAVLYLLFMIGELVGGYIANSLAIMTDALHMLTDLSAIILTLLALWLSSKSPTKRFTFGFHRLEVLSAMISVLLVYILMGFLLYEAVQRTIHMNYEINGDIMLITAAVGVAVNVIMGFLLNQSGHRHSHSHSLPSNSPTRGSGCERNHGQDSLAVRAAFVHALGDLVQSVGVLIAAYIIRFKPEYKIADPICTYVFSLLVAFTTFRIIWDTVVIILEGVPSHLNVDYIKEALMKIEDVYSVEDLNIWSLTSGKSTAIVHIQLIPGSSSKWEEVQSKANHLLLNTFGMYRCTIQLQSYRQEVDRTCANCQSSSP

Variants of: B1
Details: with atp23_human ATP23, Q9Y6H3

| effect of a mutation on the interaction | Variant |
| --- | --- |
| disrupting interaction strength | V94D |

Variants of: B2
Details: with FAM209A

| effect of a mutation on the interaction | Variant |
| --- | --- |
| with no effect | L47F |

Variants of: B3
Details: with cybr1_human CYBRD1, Q53TN4

| effect of a mutation on the interaction | Variant |
| --- | --- |
| with no effect | G144W |

Variants of: B4
Details: with cr3l1_human CREB3L1, Q96BA8

| effect of a mutation on the interaction | Variant |
| --- | --- |
| with no effect | G144W |

Variants of: B5
Details: with AGTRAP

| effect of a mutation on the interaction | Variant |
| --- | --- |
| disrupting interaction strength | G118R |
| disrupting interaction strength | D251N |

Variants of: B6
Details: with ntcp_human SLC10A1, Q14973

| effect of a mutation on the interaction | Variant |
| --- | --- |
| with no effect | G144W |

Variants of: B7
Details: with znt4_human SLC30A4, O14863

| effect of a mutation on the interaction | Variant |
| --- | --- |
| disrupting interaction strength | G123D |
| with no effect | R6T |
| disrupting interaction strength | L47F |
